Source: patent publication US20240124556A1, “KERATIN BD-3, PREPARATION METHOD THEREFOR AND PHARMACEUTICAL COMPOSITION AND USE THEREOF” (INSTITUTE OF MATERIA MEDICA, CHINESE ACADEMY OF MEDICAL …, priority 2019, published 2024)

Tests used:
Format in all cases: in vivo, ICR mice
[1] = test system: phenol red excretion in mice; experiment: Expectorant test, phenol red excretion method in mice; details: for Phenol red excretion: X ± SEM, solvent control 0.506 ± 0.040
Experimental: • Animals: male ICR mice; • Drugs and reagents: Mucosolvan (ambroxol hydrochloride tablets), phenol red, sodium bicarbonate, protein BD-3; • Instruments: centrifuge (Sigma-3K15 type), balance (XS105DU type), Microplate tester (BIO-TEK type). • Experiment Grouping: • Solvent control group; • Mucosolvan 30 mg/kg group; • Protein BD-3, 20 mg/kg group, 50 mg/kg group.
The animals were fasted and water was taken freely 16 hours before the experiment. Orally administered Mucosolvan and different doses of protein BD-3 (administration volume 10 ml/kg) in groups, and the solvent control group was given the same volume of distilled water. One hour later, 2.5% phenol red solution was injected intraperitoneally. Mice were sacrificed by neck dislocation after 30 minutes. Take a trachea from below the thyroid cartilage to the branch of the trachea, and put the trachea into 3 ml 5% NaHCO3 solution and let it stand for 3 hours. Take 1 ml of the supernatant and centrifuge at 3000 rpm for 5 minutes. Measure and record the absorbance at 546 nm. According to the standard curve of phenol red, the excretion of phenol red was calculated.
Record the time point of oral administration, the time point of intraperitoneal injection of 2.5% phenol red solution, and the time point of taking the trachea respectively; The absorbance of each group of samples was measured by the microplate reader at 546 nm, Calculate the excretion of phenol red according to the standard curve of phenol red. Calculate the mean and standard error of the data in each group, and use TTEST to compare the solvent control group with other groups, and P<0.05 is considered as a significant difference.

[2] = test system: PTZ-induced epilepsy in mice; experiment: Pentylenetetrazole (PTZ)-induced epilepsy in mice; details: for mortality rate / Grade IV seizure rate / Cases of Grade IV / Cases of deaths: PTZ 65 mg/kg i.p.; for mortality rate: model group 10%; for Grade IV seizure rate: model group 90%; for Cases of Grade IV / Cases of deaths: of 10 mice; for Cases of Grade IV: 15 min observation, model group 9; for Cases of deaths: model group 1; for Grade IV seizure incubation period / Grade III seizure incubation period: mean ± SEM; for Grade IV seizure incubation period: maximum recorded 900 seconds, model group 185 ± 84; for Grade III seizure incubation period: model group 63 ± 6
Experimental: • Animals: male ICR mice; • Medicines: Pentylenetetrazol (PTZ), Retigabine, Protein BD-3. • Experiment grouping: • Model group; • Retigabine 60 mg/kg group; • Protein BD-3, 50 mg/kg group, 200 mg/kg group;
The drug was administered once in the afternoon the day before modeling, On the day of modeling, PTZ-65 mg/kg (modeling agent) was injected intraperitoneal 1 hour after the test drug was administered intragastrically, and the positive drug can be administered once half an hour before modeling. Continue to observe for 15 minutes after injection of PTZ.
Observation index: (1)Seizure situation: the time of seizures from Grade III to Grade VI; (2)Death situation
Seizure grade: Refer to Racine grading standard: Grade 0: No response; Grade I: manifested as twitching of facial muscles or the corners of the mouth; Grade II: can nod; Grade III: twitching of one limb; Grade IV: rigidity or body twitching; Grade V: generalized epilepsy (generalized tonic seizures).
Count the cases of seizures and deaths in each group of mice in the experiment; Grade III and IV incubation period. The incubation period of mice that have not attacked to Grade IV is recorded as the maximum of 900 seconds. Chi-square test was used for statistics of the number of cases. Calculate the mean and standard error of the incubation period. Use TTEST to compare the model group with other groups, and P<0.05 is considered as a significant difference.

[3] = test system: cough induced by ammonia water in mice; experiment: Antitussive test, cough induced by ammonia water in mice; details: for Incubation period (cough) / Number of coughs: X ± SEM; for Incubation period (cough): solvent control 26.9 ± 2.3; for Number of coughs: within 2 minutes, solvent control 67.1 ± 5.7
Experimental: • Animals: male ICR mice; • Drugs and reagents: dextromethorphan hydrobromide, ammonia water, 0.2% CMC-Na, protein BD-3; • Apparatus: Compressed nebulizer (403T type), balance (XS105DU type). • Experiment grouping: • Solvent control group; • Dextromethorphan 15 mg/kg group; • Protein BD-3, 20 mg/kg group, 50 mg/kg group.
Dextromethorphan and different doses of protein BD-3 (administration volume 10 ml/kg) were given orally in groups, and the solvent control group was given the same volume of distilled water. One hour later, mice were put into a sealed box and atomized 10% ammonia water for 10 seconds, and then observed and recorded the incubation period of cough in mice and the number of coughs in 2 minutes.
Record the time point of oral administration, the time point of atomization experiment, the incubation period of mice cough and the number of coughs within 2 minutes, respectively. The incubation period of cough refers to the number of seconds from the start of the atomization of ammonia to the occurrence of cough. The performance of coughing in mice is based on contraction of their abdominal muscles (breast contraction) and opening their mouths at the same time. Calculate the mean and standard error of each group of data, and use TTEST to compare the model group with other groups, and P<0.05 is considered as a significant difference.

[4] = summary statement, no dose given

B1: BD-3: recombinant keratin, amino acid sequence SEQ ID NO:1, expressed in E. coli, band around 43 kD; tested material prepared in Example 4 (protein, listed as Bos taurus)
chain: MSYSCCLPNLSFRSSCSSRPCVPSSCCGTTLPGACNIPANVGSCNWFCEGSFNGSEKETMQFLNDRLASYLEKVRQLERDNAELESRILERSQQKILANKAENARLVVQIDNAKLAADDFRTKYQTELGLRQLVESDINGLRRILDELTLCKSDLEAQVESLKEELICLKQNHEQEVNTLRSQLGDRLNVEVDAAPTVDLNRVLNETRAQYEALVETNRRDVEEWYIRQTEELNKQVVSSSEQLQSYQAEIIELRRTVNALEVELQAQHNLRDSLENTLTETEARYSCQLAQVQGLIGNVESQLAEIRSDLERQNQEYQVLLDVRARLECEINTYRGLLDSEDCKLPCNPCATTNASSVGSCVTNPCTPCGPRSRFGPCNTFGC
B1 was tested, and the Phenol red excretion ([1]; BD-3 20 mg/kg oral) was 0.750 ± 0.085 µg/mL, the “Excretion of phenol red vs solvent control (in words)” value ([1]; BD-3 20 mg/kg, P<0.05) was “significantly increased the excretion of phenol red” and the Phenol red excretion ([1]; BD-3 50 mg/kg oral) was 0.706 ± 0.114 µg/mL. The “Summary: expectorant effect (in words)” value [1, 4] was “has obvious expectorant effect”, the mortality rate ([2]; BD-3 50 mg/kg intragastric) was 10% and the “Grade IV seizure rate” value ([2]; BD-3 50 mg/kg intragastric) was 100%. The “Cases of Grade IV” value ([2]; BD-3 50 mg/kg intragastric) was 10, the Cases of deaths ([2]; BD-3 50 mg/kg intragastric) was 1 and the “Grade IV seizure incubation period” value ([2]; BD-3 50 mg/kg) was 162 ± 58 s. The “Grade III seizure incubation period” value ([2]; BD-3 50 mg/kg) was 75 ± 6 s, the “Epilepsy Grade III incubation period vs model group (in words)” value ([2]; BD-3 200 mg/kg) was “has a tendency to extend the incubation period, but there is no statistical difference compared with the model group” and the mortality rate ([2]; BD-3 200 mg/kg intragastric) was 0%. The “Grade IV seizure rate” value ([2]; BD-3 200 mg/kg intragastric) was 70%, the “Cases of Grade IV” value ([2]; BD-3 200 mg/kg intragastric) was 7 and the Cases of deaths ([2]; BD-3 200 mg/kg intragastric) was 0. The “Grade IV seizure incubation period” value ([2]; BD-3 200 mg/kg) was 327 ± 125 s, the “Grade III seizure incubation period” value ([2]; BD-3 200 mg/kg) was 62 ± 5 s and the “Incubation period (cough)” value ([3]; BD-3 20 mg/kg oral) was 31.6 ± 3.3 s. The Number of coughs ([3]; BD-3 20 mg/kg oral) was 46.7 ± 4.1, the “Number of coughs vs solvent control (in words)” value ([3]; BD-3 20 mg/kg, P<0.05) was “significant improvement in the number of coughs” and the “Incubation period (cough)” value ([3]; BD-3 50 mg/kg oral) was 34.2 ± 2.1 s. For the same molecule, the Number of coughs ([3]; BD-3 50 mg/kg oral) was 53.6 ± 3.7, the “Cough incubation period vs solvent control (in words)” value ([3]; BD-3 50 mg/kg, P<0.05) was “significant improvement in the incubation period” and the “Summary: antitussive effect (in words)” value [3, 4] was “can significantly extend the incubation period, significantly reduce the number of coughs”.
